Test results taken from patent US20230416375A1 (VERSAPEUTICS, published 2023).
Positions count from the first letter of the chain named. Where two headings read alike, the source gives them in different places.

Tests used:
[1] = target: T1, … variant with 9I exchanged by L (human); experiment: peptide microarray substitution scan, Ab5.5 at 1 µg/mL
T1 construct: Substitution scan peptide
T1 peptide: LDKNTSRTLYDPVHA

[2] = target: T2, wild type peptide LDKNTSRTIYDPVHA (SEQ ID NO:32) (human); experiment: as above
T2 construct: Printed on a peptide microarray; also called Homo sapiens Ryk(206-220)
T2 peptide: LDKNTSRTIYDPVHA

[3] = target: … variants with 13V replaced by other amino acids; experiment: as above
[4] = target: … variants with 8T exchanged by other amino acids; experiment: as above
[5] = target: … variants with 11D exchanged by other amino acids; experiment: as above
[6] = target: … variants with 7R replaced by other amino acids; experiment: as above
[7] = target: … variants with 12P exchanged by other amino acids; experiment: as above
[8] = target: … variants with 10Y exchanged by other amino acids; experiment: as above
[9] = target: T3, peptides with the highly basic consensus motif RRKMCYKKLEEVK (SEQ ID NO:31) (human); experiment: PEPperMAP linear epitope mapping: microarray of 15-mer peptides (14 aa overlap) of human Ryk 134-227, antibody at 10 µg/mL, goat anti-human IgG (Fc) DyLight680
T3 construct: Array spots were 15-mers sharing this motif; also called Homo sapiens Ryk(190-202)
T3 peptide: RRKMCYKKLEEVK

[10] = target: T4, peptides with the highly basic consensus motif SSKNFTVLNFKRRK (SEQ ID NO:29) (human); experiment: as above
T4 construct: Array spots were 15-mers sharing this motif; also called Homo sapiens Ryk(179-192)
T4 peptide: SSKNFTVLNFKRRK

[11] = target: T5, peptides with the highly basic consensus motif TVLNFKRRKMCYKK (SEQ ID NO:30) (human); experiment: as above
T5 construct: Array spots were 15-mers sharing this motif; also called Homo sapiens Ryk(184-197)
T5 peptide: TVLNFKRRKMCYKK

[12] = target: T6, peptides with the consensus motif TSRTIYDPV (SEQ ID NO:28) (human); experiment: as above
T6 construct: The array spots were adjacent 15-mers of human Ryk 134-227 sharing this motif; also called Homo sapiens Ryk(210-218)
T6 peptide: TSRTIYDPV

[13] = target: … variants with 13V replaced by other amino acids; experiment: peptide microarray substitution scan, Ab5.5_var1 at 100 µg/mL
[14] = target: … variants with 8T exchanged by other amino acids; experiment: as above
[15] = target: … variants with 7R replaced by other amino acids; experiment: as above
[16] = target: … variants with 12P exchanged by other amino acids; experiment: as above
[17] = target: full length human RYK (human, UniProt P34925 26-607); experiment: cell-based or functional assay
[18] = target: T1, … variant with 9I exchanged by L; experiment: peptide microarray substitution scan, Ab5.5_var1 at 100 µg/mL
[19] = target: T2, wild type peptide LDKNTSRTIYDPVHA (SEQ …); experiment: as above
[20] = target: T7, full length mouse RYK (mouse, UniProt Q01887 35-594); experiment: Western blot of RIPA lysates (30 µg per lane) of transfected HEK293 cells, Ab5.5_Var1 at 1 µg/mL, anti-human secondary, LI-COR detection
T7 construct: Expressed from a plasmid (Macheda et al.) in HEK293, and the lysate was probed by Western blot; also called Mus musculus Ryk

[21] = target: T8, single peptide NSSKNFTVLNFKRRK (SEQ ID NO:35) (human); experiment: PEPperMAP linear epitope mapping: microarray of 15-mer peptides (14 aa overlap) of human Ryk 134-227, antibody at 100 µg/mL, goat anti-human IgG (Fc) DyLight680
T8 construct: also called Homo sapiens Ryk(178-192)
T8 peptide: NSSKNFTVLNFKRRK

[22] = target: T6, peptides with the consensus motif …; experiment: as above
[23] = target: T9, peptides with the basic consensus motif VLNFKRRKMCYKK (SEQ ID NO:36) (human); experiment: as above
T9 construct: Array spots were 15-mers sharing this motif; also called Homo sapiens Ryk(185-197)
T9 peptide: VLNFKRRKMCYKK

[24] = target: T3, peptides with the highly basic …; experiment: PEPperMAP linear epitope mapping: microarray of 15-mer peptides (14 aa overlap) of human Ryk 134-227, goat anti-human IgG (Fc) DyLight680
[25] = target: T3, peptides with the highly basic …; experiment: PEPperMAP linear epitope mapping: microarray of 15-mer peptides (14 aa overlap) of human Ryk 134-227, antibody at 10 µg/mL, goat anti-human IgG (Fc) DyLight680
[26] = target: T4, peptides with the highly basic …; experiment: as above
[27] = target: T5, peptides with the highly basic …; experiment: as above
[28] = target: T6, peptides with the consensus motif …; experiment: as above

B1: Ab5.5 (antibody, V domains shown)
VH: EVKLVESGGDLVQPGGSLKLSCAASGFTFSSYTMSWIRQTPEKRLEWVAYISNGGGGTYYPDTVKGRFTISRDNAKNTLYLQMNSLKSEDTAMYYCTRHGDNGDYWGHGSTLTVSS
VL: DIKMTQSPSSMYASLGERVTITCKASQDINSYLSWIQQKPGKSPKTLIYRANRLVDGVPSRFSGSGSGQDYSLTISSLEYEDMGIYYCLQYDEFPLTFGAGTKLELK
notes: Parental murine variable domains; also called Chimera antibody; Parental
binding result [1]: binds | binding result [2]: binds | % lower spot intensity than the wild type peptide [3]: > 58% | % lower spot intensity than the wild type peptide [4]: 27% | % lower spot intensity than the wild type peptide [5]: > 83% | % lower spot intensity than the wild type peptide [6]: > 67% | % lower spot intensity than the wild type peptide [7]: 33% | % lower spot intensity than the wild type peptide [8]: > 83%

B2: Ab5.5_var1 (antibody, V domains shown)
VH: EVQLVESGGGLVQPGGSLRLSCAASGFTFSSYTMSWIRQAPGKGLEWVAYISNGGGGTYYPDSVKGRFTISRDNAKNTLYLQMNSLRAEDTAVYYCTRHGDNGDYWGHGSLVTVSS
VL: DIQMTQSPSSLSASVGDRVTITCKASQDINSYLSWIQQKPGKAPKTLIYRANRLVDGVPSRFSGSGSGTDYTLTISSLQPEDFATYYCLQYDEFPLTFGAGTKVEIK
notes: Detected with anti-human IgG (Fc); also called variant 1; v1
binding result [9]: binds | binding result [10]: binds | binding result [11]: binds | binding result [12]: binds | % lower spot intensity than the wild type peptide [13]: > 62% | % lower spot intensity than the wild type peptide [14]: 7.5% | % lower spot intensity than the wild type peptide [15]: > 70% | % lower spot intensity than the wild type peptide [16]: 35% | IC50 of inhibition of canonical Wnt signaling (luciferase reporter) in HEK 293 STF cells stimulated with 250 ng/mL human Wnt-3a [17]: 484 mg/L | binding result [18]: binds | binding result [19]: binds | binding result [20]: binds

B3: Ab5.5_var10 (antibody, V domains shown)
VH: B2 VH with V48A, N53T, P61V, T78S
VL: B2 VL with V19A, A100G
notes: Detected with anti-human IgG; also called variant 10; v10
binding result [21]: binds | binding result [22]: binds | binding result [23]: binds | binding result [24]: no binding (tested: 100 µg/mL)

B4: Ab5.5_var2 (antibody, V domains shown)
VH: B2 VH with T78S, H108Q
VL: B2 VL
notes: Detected with anti-human IgG; also called Variant 2; variant 2
binding result [25]: binds | binding result [26]: binds | binding result [27]: binds | binding result [28]: binds
